In the experiment the target is Factor Xa. In words: SPR; FXa immobilised by amine coupling on a CM5 chip (1455.7 RU); Lofaxin as analyte at 1.95-31.25 nM; Biacore T100, 25°C, HBS-P buffer (10 mM HEPES, 150 mM NaCl, 0.005% P20, pH 7.4); global fit to the 1:1 Langmuir model. A general note: In SPR one partner is held on a chip, and binding of the other changes the refractive index at the surface.

This is an account of results in paper PMC4943706.

As usually defined, the pKd is the negative decadic logarithm of the Kd, by convention in mol/L. Low readings indicate a large Kd, high ones a small Kd.

pKd: −log10 of the molar value.

In turn, “recombinant Lofaxin (Lufaxin-like salivary protein of Bichromomyia olmeca) (natural protein)” had a pKd of 8.74.
